Targets include Soli C1 (Solenopsis invicta); Soli C2 (Solenopsis invicta); Soli E1 (Solenopsis invicta).
Holding throughout (assay): cell-based or functional assay
The target of another assay is T1, Soli E2 (Solenopsis invicta).
T1 chain: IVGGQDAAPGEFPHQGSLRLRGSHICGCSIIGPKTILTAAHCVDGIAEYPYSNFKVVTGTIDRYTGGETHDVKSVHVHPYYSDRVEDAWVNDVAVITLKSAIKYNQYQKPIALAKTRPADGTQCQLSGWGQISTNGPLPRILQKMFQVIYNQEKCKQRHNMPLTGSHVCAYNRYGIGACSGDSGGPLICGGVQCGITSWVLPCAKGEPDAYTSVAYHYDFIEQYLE

Experimental findings from patent publication US6399759 (UNIVERSITY OF GEORGIA RESEARCH FOUNDATION, dated 2002) are described below.

Where only a bound is given, the exact number is not on record here.

A word on the IC50: it is the midpoint of a concentration-inhibition curve. Read a high IC50 as lower potency.

Chain of Soli C2 (Solenopsis invicta) (main, as listed by the source): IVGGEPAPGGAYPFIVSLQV
Chain of Soli E1 (Solenopsis invicta) (main, as listed by the source): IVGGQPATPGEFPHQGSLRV
Chain of Soli C1 (Solenopsis invicta) (Q7SIG2 other isoform, or with tags, fused parts or gaps): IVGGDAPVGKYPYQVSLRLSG

B1: Lima Bean Trypsin Inhibitor (other, UniProt P01056 1-83, looked up)
chain: SGHHEHSTDXPSXSSKPCCXHCACTKSIPPQCRCTDLRLDSCHSACKSCICTLSIPAQCVCXXIXDFCYEPCKSSHSDDDNNN
modifications: not fully specified
B1: the “IC50” value with Soli C1 is 18.4 nM; with Soli C2, 1.46 nM; with Soli E1, more than 50 nM; with Soli E2 it was more than 50 nM.
